Like-named read-outs stand apart in the source and are kept apart here.
Assays:
[1] = molecular target: pyrene-labeled F-actin (chicken skeletal actin) (chicken) (UniProt P68139); assay: stopped-flow transient kinetics (pyrene-actin fluorescence); no nucleotide; k'+A from linear fits of kobs; k'-A from mixing 1 µM pyrene-actomyosin complex with excess unlabeled F-actin; 1/K'A calculated as k'-A/k'+A; 20 °C, 20 mM MOPS, 100 mM KCl, 5 mM MgCl2, 1 mM DTT, pH 7.0
[2] = molecular target: F-actin (chicken skeletal actin) (chicken) (UniProt P68139)
[3] = molecular target: pyrene-labeled F-actin (chicken skeletal actin) (chicken) (UniProt P68139); assay: double-mixing stopped-flow (pyrene-actin fluorescence quench); weak-to-strong transition, single turnover: 2 µM myosin mixed with sub-equimolar ATP (1.8 µM), aged 3 s, then mixed with 20 µM pyrene-actin; double exponential fits; 20 °C
[4] = molecular target: F-actin (chicken skeletal actin) (chicken) (UniProt P68139); assay: double-mixing stopped-flow, actin-activated Pi release (MDCC-PBP fluorescence); M.D.Pi state; multiple turnover: 2 µM myosin mixed with 200 µM ATP, aged 0.1 s, then mixed with increasing F-actin in excess ADP, 5 µM MDCC-PBP; hyperbolic fit kobs = k'+4[actin]/(1/K'DPA+[actin]); 20 °C, 20 mM MOPS, 100 mM KCl, 5 mM MgCl2, 1 mM DTT, pH 7.0
[5] = molecular target: pyrene-labeled F-actin (chicken skeletal actin) (chicken) (UniProt P68139); assay: double-mixing stopped-flow (pyrene-actin fluorescence quench); weak-to-strong transition, single turnover: 2 µM myosin mixed with sub-equimolar ATP (1.8 µM), aged 3 s, then mixed with 20 µM pyrene-actin; double exponential fits; 20 °C; remark: listed apart in the source
[6] = molecular target: pyrene-labeled F-actin (chicken skeletal actin) (chicken) (UniProt P68139); assay: stopped-flow (pyrene-actin fluorescence amplitude); multiple turnover: 2 µM myosin and 15 µM pyrene-actin mixed with 20 µM ATP; signal normalised to 100% of myosin bound to actin without nucleotide; fraction strongly bound from the change in total amplitude
[7] = molecular target: pyrene-labeled F-actin (chicken skeletal actin) (chicken) (UniProt P68139); assay: stopped-flow transient kinetics (pyrene-actin fluorescence); with ADP (ADP-myosin); k'+DA from linear dependence of kobs on pyrene-actin concentration; k'-DA from 1 µM pyrA.M pre-incubated with excess ADP mixed with excess unlabeled F-actin; 1/K'DA calculated as k'-DA/k'+DA; 20 °C, 20 mM MOPS, 100 mM KCl, 5 mM MgCl2, 1 mM DTT, pH 7.0
[8] = molecular target: pyrene-labeled F-actin (chicken skeletal actin) (chicken) (UniProt P68139); assay: stopped-flow (pyrene-actin fluorescence amplitude); multiple turnover: 2 µM myosin and 15 µM pyrene-actin mixed with 20 µM ATP; signal normalised to 100% of myosin bound to actin without nucleotide; fraction strongly bound from the change in total amplitude; remark: listed apart in the source

Substance | Kd [1] [µM] | koff [1] [s⁻¹] | kon [1] [M⁻¹ s⁻¹] | Kapp of the actin-activated steady-state ATPase (F-actin concentration at kcat/2), NADH-coupled assay [2] [µM] | kcat/Kapp (catalytic efficiency) of the actin-activated steady-state ATPase [2] [M⁻¹ s⁻¹] | k'weak-strong (observed rate of the weak-to-strong actin-binding transition) [3] [s⁻¹] | Kd [4] [µM] | k'+4K'DPA (second order rate constant of M.D.Pi binding to actin) [4] [M⁻¹ s⁻¹] | k'weak-strong (observed rate of the weak-to-strong actin-binding transition) [5] [s⁻¹] | percent strongly actin-bound with ATP (experimental duty ratio) [6] [%] | Kd [7] [µM] | koff [7] [s⁻¹] | kon [7] [M⁻¹ s⁻¹] | percent strongly actin-bound with ATP (experimental duty ratio) [8] [%]
M765^AA-2R, D. discoideum myosin-2 motor domain (amino acids 1-765) with T647A, T648A fused to two alpha-actinin repeats (from UniProt P08799 1-765) (domain or fragment) | 0.01 | 0.004 | 610000 | > 100 | < 30000 | – | – | – | – | – | – | – | – | –
M765^GGG-2R, D. discoideum myosin-2 motor domain (amino acids 1-765) with the two W-loop threonines replaced by three glycines, fused to two alpha-actinin repeats (from UniProt P08799 1-765) (domain or fragment) | 0.011 | 0.005 | 610000 | 54 | 140000 | 2.6 | 18 | 790000 | 2.3 | 35 | 0.024 | 0.005 | 180000 | 45
M765^wt-2R, D. discoideum myosin-2 motor domain (amino acids 1-765) fused to an artificial lever of two alpha-actinin repeats (from UniProt P08799 1-765) (domain or fragment) | 0.0057 | 0.003 | 640000 | > 100 | < 30000 | 1 | 94 | 40000 | – | – | 0.063 | 0.006 | 120000 | –

Reference: publication PMC7795666
